# Test results as given in paper PMC11109483.
# pKd: −log10 of the molar value.
# Biological target: biotinylated HIP1 (22-309) (UniProt O00291)
# Assay: SPR; Biacore T200, 25°C; biotinylated HIP1(22-309) immobilised on Sensor Chip NA (900 RU); Ub chains as analytes 60 nM to 250 uM, multicycle; 50 mM Hepes pH 7.5, 300 mM NaCl, 0.5 mM TCEP, 0.05% Tween-20, 1% BSA; steady-state affinity model
# UniProt O00291, sequence (O00291 22-309): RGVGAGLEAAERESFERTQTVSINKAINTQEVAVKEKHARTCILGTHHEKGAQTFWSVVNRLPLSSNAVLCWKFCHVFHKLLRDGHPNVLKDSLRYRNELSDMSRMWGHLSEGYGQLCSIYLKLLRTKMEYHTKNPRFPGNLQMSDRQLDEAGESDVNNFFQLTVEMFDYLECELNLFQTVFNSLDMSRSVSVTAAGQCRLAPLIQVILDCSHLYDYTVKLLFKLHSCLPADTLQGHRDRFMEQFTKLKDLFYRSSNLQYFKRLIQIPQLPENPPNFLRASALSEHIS
row,pKd,Substance
1,3.86,K48-linked Ub2 (from UniProt P0CG48 1-76; P0CG48 1-76)
2,4.18,K48-linked Ub3 (from UniProt P0CG48 1-76; P0CG48 1-76)
3,5.72,K63-linked Ub2 (from UniProt P0CG48 1-76; P0CG48 1-76)
4,5.81,K63-linked Ub3 (from UniProt P0CG48 1-76; P0CG48 1-76)
